Assay results published in paper PMC8444619.

Columns and labels:
Assay in all cases: cross-linking
[1] = molecular target: HA-tagged GST V125-TAG (azF) (E. coli) (UniProt P0A9D2)
[2] = molecular target: NS4B^HA (HA-tagged HCV NS4B, wild type, in NS3-5B-4B^HA) (hepatitis C virus)
[3] = molecular target: NS4B^HA A180-TAG (azF) (hepatitis C virus)
[4] = molecular target: NS4B^HA I96-TAG (azF) (hepatitis C virus)
[5] = molecular target: NS4B^HA K162-TAG (azF) (hepatitis C virus)
[6] = molecular target: NS4B^HA M80-TAG (azF) (hepatitis C virus)
[7] = molecular target: NS5A^HA I15-TAG (azF) F36A/I37A/S38A/R112A/E148A (hepatitis C virus)
[8] = molecular target: NS5A^HA W84-TAG (azF) (hepatitis C virus)
[9] = molecular target: NS5A^HA W84-TAG (azF) D18A (hepatitis C virus)

HA-tagged GST V125-TAG (azF) (from UniProt P0A9D2 1-201) (enzyme)
stoichiometry N [1]: 2

NS4B^HA (HA-tagged HCV NS4B, wild type, in NS3-5B-4B^HA) (natural protein)
stoichiometry N [2]: 2

NS4B^HA A180-TAG (azF) (natural protein)
stoichiometry N [3]: 2

NS4B^HA I96-TAG (azF) (natural protein)
stoichiometry N [4]: 2

NS4B^HA K162-TAG (azF) (natural protein)
stoichiometry N [5]: 2

NS4B^HA M80-TAG (azF) (natural protein)
stoichiometry N [6]: 2

NS5A^HA I15-TAG (azF) F36A/I37A/S38A/R112A/E148A (natural protein)
percent of the control level (% of the control level) [7]: 55

NS5A^HA W84-TAG (azF) (natural protein)
stoichiometry N [8]: 2

NS5A^HA W84-TAG (azF) D18A (natural protein)
percent of the control level (% of the control level) [9]: 66
